Residues, ends and D or L forms follow the SMILES beside them. No end group written: not given here. *: point of attachment. Cbz = O=C(OCc1ccccc1)*
Columns and labels:
QRFPR = target: T1, QRFPR (Homo sapiens, UniProt Q96P65); assay: QRFPR levels after prolonged GDF15 stimulation with or without proteasome inhibition; assay type: cell-based; conditions: MG132 10 μM + GDF15 overnight vs equal GDF15 without MG132; FIG. 6
T1 construct: endogenous in cells
T1 sequence (Q96P65 1-431): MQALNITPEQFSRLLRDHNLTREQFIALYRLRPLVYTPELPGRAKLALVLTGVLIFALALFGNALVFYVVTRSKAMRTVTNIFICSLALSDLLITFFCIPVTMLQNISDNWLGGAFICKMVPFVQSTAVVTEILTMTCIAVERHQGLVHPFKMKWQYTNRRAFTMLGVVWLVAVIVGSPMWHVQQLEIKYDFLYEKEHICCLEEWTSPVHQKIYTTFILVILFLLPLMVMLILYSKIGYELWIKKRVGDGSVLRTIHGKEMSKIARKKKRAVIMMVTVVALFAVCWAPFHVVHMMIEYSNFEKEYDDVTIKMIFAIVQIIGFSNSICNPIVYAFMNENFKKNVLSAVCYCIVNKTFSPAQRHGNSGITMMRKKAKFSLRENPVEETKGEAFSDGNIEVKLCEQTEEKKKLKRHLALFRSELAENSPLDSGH
Method: This effect is not seen in cells which are treated with MG132 (FIG. 6D).

GDF15 [1] = target: T2, GDF15 (Homo sapiens, UniProt Q99988); assay: Pull down of GDF15 by Fc fusion proteins with stringent washes; assay type: binding; conditions: 20 μg Fc fusion protein, 0.5 μg GDF15, protein-G bead, FIG. 27
T2 construct: purchased Abcam
T2 sequence (Q99988 197-308 limits assumed): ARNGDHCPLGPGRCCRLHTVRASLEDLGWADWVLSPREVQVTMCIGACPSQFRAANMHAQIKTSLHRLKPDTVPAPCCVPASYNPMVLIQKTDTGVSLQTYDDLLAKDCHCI
Method: (§1) 20 μg Fc fusion protein constructs were incubated with 0.5 μg GDF15 and protein-G bead with mixing for 6 hrs in +4 C in PBST+1% BSAs. Wash 6 times: 3 times PBST, change tubes, 2 washes PBST+220 mM NaCl. Last wash PBS. The beads were collected using a table-top centrifuge set at 500 g for 5 minutes between washes. Detection The material was loaded on a 4-12% gradient gel, run at 100 volt, transferred to PVDF membrane using a Turbo Tank blot system, blocked by PBS with 3% BSA 1 hr RT, and incubated with RD systems a monoclonal anti-GDF15 antibody overnight. A secondary antibody: mouse HRP 1:2000 was used for detection. The size of band was estimated by comparing with a seeblue2 protein ladder marker run in an adjacent lane.
The fragments from the receptors were selected based on previous results including array data indicating direct interaction with GDF15. In the array, the interaction is between a peptide monomer and the ligand.

CD14+ cells = assay: Cytokine secretion by LPS-stimulated CD14+ cells (Proseek assay); assay type: cell-based
Method: CD14+ cells where isolated and cultured in the presence or absence of GDF15 in a LPS stimulated culture.
Buffy coat cell suspension or heparinized blood samples were diluted with sterile, room temperature PBS. Peripheral blood samples are diluted 1:1, whereas buffy coats are diluted to a final volume of 120 ml (in a standard buffy coat this will result in slightly greater dilution than 1:1). The diluted cell suspension was layered onto Ficoll Paque PLUS. For one buffy 4×15 ml aliquots are used (30 ml of diluted cell suspension/tube). Cells were centrifuged at 400×g for 30 min at room temperature and transferred to a new 50 ml tube. Cells were washed once and resuspended in 20 ml PBS.
Mononuclear cell suspension was pelleted by centrifugation. Cells were resuspended in Stemcell buffer at a concentration of 10^8 cells/ml and transferred to a round bottom 14 ml tube. EasySep Positive Selection cocktail at was added at 100 μl/ml cells, mixed by gentle pipetting, and incubated at room temperature for 15 min. 50 μl EasySep Magnetic Nanoparticles per 1 ml cells were added and mixed, and incubated at room temperature for 10 min. Stemcell recommended medium was added to bring the cell suspension to a total volume of 5 ml and mixed by gently pipetting. The tube (without cap) was placed into the magnet and set aside for 5 min. After 5 minutes the supernatant was discarded. CD14+ labelled cells will remain inside the tube. The tube was removed from the magnet and add 5 ml Stemcell recommended medium was added and mixed by gently pipetting. The tube (without cap) was placed into the magnet and set aside for 5 min. The was step was repeated before the cells were resuspended in 5 ml complete RPMI medium. 50 μl of the CD14+ cell suspension was removed and counted to determine total cell number after dilution in Trypan blue solution and mounting on Fast Read 102 Counting Slides.
Adjust CD14+ cell suspension volume to a concentration of 0.833×10^6 cells/ml in complete RPMI medium. 300 μl of cell suspension is added to wells in a 48 well plate well (0.25×10^6 cells per well), and allowed to adhere for 90 min in an incubator at 37° C. Non-adherent cells were removed by removal of the supernatant after gently pipetting the medium. Cells were washed once with 300 μl pre-warmed complete RPMI medium and the medium aspirated off. 300 μl pre-warmed complete RPMI medium was added to each well and the cells were incubate overnight (20-24 h) in a cell incubator at 37° C.
A 17× stock solution of the desired GDF15 modulatory substances was diluted in complete RPMI. (20 μl of substance/well assayed). 20 μl of modulatory substance or medium/carrier (negative control) was added to each well and mixed by gentle pipetting. Cells were incubated for 30 min in a cell incubator at 37° C. A 17×GDF15 solution was prepared by diluting a 100 μg/ml stock solution to a concentration of 8.5 μg/ml (final concentration in culture 0.5 μg/ml) in complete RPMI. 20 μl of diluted GDF15 was added per well, and incubated overnight (18-20 h) in a cell incubator at 37° C.
A 18×LPS solution was prepared by diluting the LPS stock solution to a concentration of 18 ng/ml (final concentration in culture 1 ng/ml) in complete RPMI. 20 μl of LPS or medium (negative control) was added to each well and mixed by gentle pipetting. […]
Secreted proteins from cell cultures where quantified using multiplexed proximity extension assay, Proseek (Assarsson E et al PlosOne 2014) by Olink Proteomics AB (Uppsala Sweden). […]

GDF15 [2] = target: T2, GDF15; assay: Biotin pull-down of GDF15 using biotinylated peptides derived from QRFPR and CLPTM1; assay type: binding; conditions: N-terminal biotin peptides on Streptavidin-agarose beads, extensive washes; FIG. 8A
Method: In order to further characterise the peptides which interact with GDF15, a series of GST-fusion proteins and biotinylated peptides was prepared. GDF15 was obtained from Biovision and/or Abcam.
A series of peptides from the QRFPR and the CLPTM1 proteins was designed. In order to use the peptides both for immunoprecipitation experiments and cell culture based assays added an N-terminal biotin was added to each peptide, and the counter-ion changed to chloride.
A series of biotinylated peptides was used (FIG. 8A). […] Combinations of the peptides were also used. Peptides were mixed in a 1:1 ratio, with same total amounts as in lanes 1-5, resulting in 50% of each peptide as compared to lanes 1-5. Lane 6: EC domain 3 & EC domain 4 from QRFPR; Lane 7: EC domain 4 from QRFPR & peptide from EC domain of CLPTM1; Lane 8: EC domain 3 from QRFPR & peptide from EC domain of CLPTM1; Lane 9: Mw markers; Lane 10: GDF15 (positive control).

[3] = target: T3, Growth and differentiation factor 15 (GDF15) (UniProt Q99988 197-308, limits assumed); assay: Fc-fusion pull-down on protein-G beads, Western blot
T3 construct: Purchased GDF15 added to cells, pull-downs, peptide arrays and ELISA; also called MIC1
T3 sequence (looked up): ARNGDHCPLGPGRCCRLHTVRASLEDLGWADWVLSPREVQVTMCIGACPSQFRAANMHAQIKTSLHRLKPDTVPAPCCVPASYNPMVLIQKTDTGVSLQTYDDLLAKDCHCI
Method: as §1

[4] = target: T4, Cleft Lip and Palate Transmembrane protein 1 (CLPTM1) (human, UniProt O96005 2-669); assay: in situ PLA on NK-92 cells
T4 construct: Endogenous receptor of NK-92 cells, CD14+ cells and human tissues
T4 sequence: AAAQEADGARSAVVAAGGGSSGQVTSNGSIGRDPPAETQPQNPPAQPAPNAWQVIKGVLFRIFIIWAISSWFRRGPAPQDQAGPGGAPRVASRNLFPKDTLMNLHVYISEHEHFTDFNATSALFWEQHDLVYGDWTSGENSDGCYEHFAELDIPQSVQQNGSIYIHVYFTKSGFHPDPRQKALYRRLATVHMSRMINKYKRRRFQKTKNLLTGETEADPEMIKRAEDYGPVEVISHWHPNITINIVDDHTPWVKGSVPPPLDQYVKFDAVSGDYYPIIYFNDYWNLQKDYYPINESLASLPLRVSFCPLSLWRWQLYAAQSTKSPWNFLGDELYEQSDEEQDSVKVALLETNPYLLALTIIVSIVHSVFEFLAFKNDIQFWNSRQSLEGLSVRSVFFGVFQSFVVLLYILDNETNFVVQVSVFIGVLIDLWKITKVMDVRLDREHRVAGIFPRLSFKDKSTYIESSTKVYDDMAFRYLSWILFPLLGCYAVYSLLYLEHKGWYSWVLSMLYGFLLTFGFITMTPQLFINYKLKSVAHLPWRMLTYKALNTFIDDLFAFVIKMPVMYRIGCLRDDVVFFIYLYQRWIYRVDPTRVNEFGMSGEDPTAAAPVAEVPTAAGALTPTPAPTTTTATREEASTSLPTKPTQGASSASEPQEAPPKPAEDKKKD

[5] = LPS stimulated CD14+ cells with GDF15 + agent

CC(C)C[C@@H](C=O)NC(=O)[C@H](CC(C)C)NC(=O)[C@H](CC(C)C)NC(=O)OCc1ccccc1 [MG132, reference compound] (Cbz-Leu-Leu-Leu-aldehyde)
levels of QRFPR (QRFPR): levels of QRFPR were increased

Fc mouse IgG1-GGGGSGGGGSGGGGSYISEHEHFTDFNATSALFWEQHDLVYGDWTS ({Fc mouse IgG1}-GGGGSGGGGSGGGGSYISEHEHFTDFNATSALFWEQHDLVYGDWTS) [AP2, Fc fusion protein with CLPTM1 peptide]
pull down of GDF15 by Fc fusion protein (GDF15 [1]): capable of pulling down GDF15
secretion of IFNγ (CD14+ cells; LPS stimulated CD14+ cells + agent, FIG. 30): demonstrated secretion of the pro-inflammatory protein IFNγ
secretion of IL12 (CD14+ cells; [5]): increase in secretion of both cytokines
secretion of TNF (CD14+ cells; [5]): increase in secretion of both cytokines

GALFWEQHDLVYGDWTS (listed as Homo sapiens) [SEQ ID NO:19]
GDF15 precipitated by biotinylated peptide (pull-down) (GDF15 [2]): more successful than the others in precipitating GDF15

GEIKYDFLYEKEHICCLEEWTS (listed as Homo sapiens) [SEQ ID NO:10]
GDF15 precipitated by biotinylated peptide (pull-down) (GDF15 [2]): more successful than the others in precipitating GDF15

B1: AP2 (CLPTM1 peptide): Fc mouse IgG1-GGGGSGGGGSGGGGSYISEHEHFTDFNATSALFWEQHDLVYGDWTS (Fc fusion, not shown: a dimerising Fc or GST)
chain: {Fc mouse IgG1}-GGGGSGGGGSGGGGSYISEHEHFTDFNATSALFWEQHDLVYGDWTS
modifications: also: Fc fusion dimer
notes: also called AP2 construct; Fc fusion protein comprising a CLPTM1 polypeptide
binding result [3]: binds

B2: AP5 (QRFPR peptide): Fc mouse IgG1-GGGGSGGGGSGGGGSQRLEIKYDFLYEKEH (Fc fusion, not shown: a dimerising Fc or GST)
chain: {Fc mouse IgG1}-GGGGSGGGGSGGGGSQRLEIKYDFLYEKEH
modifications: also: Fc fusion dimer
notes: if the entry holds the Fc too, the first part is redundant; also called AP5 construct; Fc fusion protein comprising a QRFPR polypeptide
binding result [3]: binds

B3: TGFBRI (ALK5) (receptor, UniProt P36897 34-503, looked up)
chain: LQCFCHLCTKDNFTCVTDGLCFVSVTETTDKVIHNSMCIAEIDLIPRDRPFVCAPSSKTGSVTTTYCCNQDHCNKIELPTTVKSSPGLGPVELAAVIAGPVCFVCISLMLMVYICHNRTVIHHRVPNEEDPSLDRPFISEGTTLKDLIYDMTTSGSGSGLPLLVQRTIARTIVLQESIGKGRFGEVWRGKWRGEEVAVKIFSSREERSWFREAEIYQTVMLRHENILGFIAADNKDNGTWTQLWLVSDYHEHGSLFDYLNRYTVTVEGMIKLALSTASGLAHLHMEIVGTQGKPAIAHRDLKSKNILVKKNGTCCIADLGLAVRHDSATDTIDIAPNHRVGTKRYMAPEVLDDSINMKHFESFKRADIYAMGLVFWEIARRCSIGGIHEDYQLPYYDLVPSDPSVEEMRKVVCEQKLRPNIPNRWQSCEALRVMAKIMRECWYANGAARLTALRIKKTLSQLSQQEGIKM
notes: whole, on cells; also called TGFBR1
binding result [4]: binds

B4: TGFBRII (receptor, UniProt P37173 23-567, looked up)
chain: TIPPHVQKSVNNDMIVTDNNGAVKFPQLCKFCDVRFSTCDNQKSCMSNCSITSICEKPQEVCVAVWRKNDENITLETVCHDPKLPYHDFILEDAASPKCIMKEKKKPGETFFMCSCSSDECNDNIIFSEEYNTSNPDLLLVIFQVTGISLLPPLGVAISVIIIFYCYRVNRQQKLSSTWETGKTRKLMEFSEHCAIILEDDRSDISSTCANNINHNTELLPIELDTLVGKGRFAEVYKAKLKQNTSEQFETVAVKIFPYEEYASWKTEKDIFSDINLKHENILQFLTAEERKTELGKQYWLITAFHAKGNLQEYLTRHVISWEDLRKLGSSLARGIAHLHSDHTPCGRPKMPIVHRDLKSSNILVKNDLTCCLCDFGLSLRLDPTLSVDDLANSGQVGTARYMAPEVLESRMNLENVESFKQTDVYSMALVLWEMTSRCNAVGEVKDYEPPFGSKVREHPCVESMKDNVLRDRGRPEIPSFWLNHQGIQMVCETLTECWDHDPEARLTAQCVAERFSELEHLDRLSGRSCSEEKIPEDGSLNTTK
notes: whole, on cells
binding result [4]: binds

Reference: patent US20180282403A1, “AGENTS FOR REDUCING THE ACTIVITY OF GDF15” (GENAGON THERAPEUTICS AB, priority 2015, published 2018)
